Here are results for 2 molecules from publication PMC8136791, “In vivo targets of Salmonella FinO include a FinP-like small RNA controlling copy number of a cohabitating plasmid”.

The target of the data set is FinO (Salmonella enterica SL1344 (virulence …, UniProt A0A0H3P176 1-187)). The experiment in a line: EMSA; yeast RNA 1 ug/reaction; apparent Kd; 25 mM Tris-HCl pH 7.4, 150 mM NaCl, 1 mM MgCl2, 1 ug yeast RNA/reaction, 4 nM labeled RNA, 37 C, 1 h (EMSA) or 30 min (filter binding). As to conditions: protein: recombinant, tags: His6-3C (expression plasmid pMiG007-His6-3C-FinO), label: 32P (5' end; 3' pCp alternative for probing).

B1: RepX (structured_RNA)
RNA: GGGCAUUGAUUGCCUCCUUUGCAGGCAGUUGGUGGUUAGGCGCUGGCGGGGUCACUACCCCCGCCCUGCGCCGCUCU
Take B1: the Kd (FinP-like stem-loops, short 3' tail) was approximately 500 nM.

B2: FinP (structured_RNA)
RNA: GGGACACAUAGGAACCUCCUCAAAGGAUUCUAUGGACAGUCGAUGCAGGGAGUGACAGCUCCCUGUAUCGGCGAUUUU
In the case of B2, the Kd (two stem-loops (SLI, SLII) with 3' U tail) is approximately 500 nM.
